Source: US20210324104A1 (INSERM INSTITUT NATIONAL DE LA SANT ET DE LA RECHERCHE M …, published 2021)

How the values were obtained:
nectin-2 = molecular target: T1, nectin-2 (UniProt Q92692 32-538, limits assumed); assay: western blot of lysates of MDA-MB-231 cells transfected with null vector (wt cells express nectin-1, -2, -3); similar results by FACS
T1 construct: whole, on cells
T1 sequence (looked up): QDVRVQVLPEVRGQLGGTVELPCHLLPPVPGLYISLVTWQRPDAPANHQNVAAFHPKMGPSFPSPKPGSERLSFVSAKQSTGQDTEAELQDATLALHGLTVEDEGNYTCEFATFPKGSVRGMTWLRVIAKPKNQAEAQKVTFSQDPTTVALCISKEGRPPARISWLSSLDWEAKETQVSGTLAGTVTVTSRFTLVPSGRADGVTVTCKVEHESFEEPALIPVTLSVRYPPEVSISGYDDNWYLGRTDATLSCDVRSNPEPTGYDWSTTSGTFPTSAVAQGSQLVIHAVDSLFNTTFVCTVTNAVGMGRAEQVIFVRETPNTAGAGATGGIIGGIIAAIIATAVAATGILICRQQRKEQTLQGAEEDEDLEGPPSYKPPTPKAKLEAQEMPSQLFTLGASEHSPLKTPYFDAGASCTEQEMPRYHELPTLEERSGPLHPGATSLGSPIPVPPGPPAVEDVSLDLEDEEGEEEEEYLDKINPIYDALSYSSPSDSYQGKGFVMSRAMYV

nectin-1 = molecular target: T2, nectin-1 (UniProt Q15223 31-517, limits assumed); assay: as above
T2 construct: whole, on cells
T2 sequence (looked up): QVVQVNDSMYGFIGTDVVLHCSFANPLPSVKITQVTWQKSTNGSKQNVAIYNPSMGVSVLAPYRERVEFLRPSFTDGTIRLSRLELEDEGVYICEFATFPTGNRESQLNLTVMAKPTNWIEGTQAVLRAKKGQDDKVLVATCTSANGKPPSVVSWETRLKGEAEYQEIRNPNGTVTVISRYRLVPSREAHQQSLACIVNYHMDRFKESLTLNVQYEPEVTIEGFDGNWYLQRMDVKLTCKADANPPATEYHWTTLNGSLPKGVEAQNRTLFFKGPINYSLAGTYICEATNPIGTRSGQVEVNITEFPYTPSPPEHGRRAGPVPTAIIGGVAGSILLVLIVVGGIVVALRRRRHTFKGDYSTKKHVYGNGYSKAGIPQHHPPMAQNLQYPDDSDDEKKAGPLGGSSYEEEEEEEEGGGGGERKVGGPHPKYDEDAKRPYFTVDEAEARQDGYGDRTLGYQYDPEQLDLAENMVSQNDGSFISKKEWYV

binding result (nectin-2): no binding (tested: 1 µg/ml)
binding result (nectin-1): no binding (tested: 1 µg/ml)
B1: 14A5.2 monoclonal antibody (antibody, V domains shown)
VH: EVLLQQSGPELVKPGASVKIPCKASGYTFTDYTMDWVKQSHGKSLEWIGDINPNNDVTMYNEKFKGRATLTVDKSSSTAYMEVRSLTSEDTAVYYCVRGRGFAYWGQGTLVTVSA
VL: DIVLTQSPASLIVSLGQRATISCRASQSVSTSSNSYMHWYQQKPGQPPKLLIRFASNLESGVPARFSGSGSGTYFTLNIHPVEEEDSATYYCQHSWEIPYTFGGGTKLEIK
notes: Parental non-chimeric monoclonal antibody; also called 14A5.2 mab; 14A5.2-HRP
